Laboratory results from patent US20120135923A1, “Use of Melanocortins to Treat Dyslipidemia” (IPSEN PHARMA, S.A.S., priority 2009, published 2012).
Each block holds one binder with its values, some of them ahead of it. Bridge positions count the residues as written; N and C are the ends. Square brackets hold non-standard residues; d marks the D form. Ends that are not written are not given here. Orn = NCCC[C@H](N)C(=O)O; Dab = NCC[C@H](N)C(=O)O; Dap = NC[C@H](N)C(=O)O

What was measured:
[1] = target: human melanocortin receptor subtype 1 (hMC1-R) (human) (UniProt Q01726); assay: [125I]-NDP-α-MSH competition, membranes
Sequence of human melanocortin receptor subtype 1 (hMC1-R) (human) (Q01726 whole entry): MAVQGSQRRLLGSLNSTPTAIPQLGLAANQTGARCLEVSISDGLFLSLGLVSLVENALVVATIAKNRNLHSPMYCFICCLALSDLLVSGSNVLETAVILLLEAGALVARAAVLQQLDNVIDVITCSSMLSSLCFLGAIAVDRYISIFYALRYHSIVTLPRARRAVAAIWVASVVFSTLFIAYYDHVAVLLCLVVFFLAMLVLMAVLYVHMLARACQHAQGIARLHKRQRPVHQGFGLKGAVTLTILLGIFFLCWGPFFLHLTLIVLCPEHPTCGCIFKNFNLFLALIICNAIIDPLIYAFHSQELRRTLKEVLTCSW

[2] = target: human melanocortin receptor subtype 4 (hMC4-R) (human) (UniProt P32245); assay: [125I]-NDP-α-MSH competition, membranes
Sequence of human melanocortin receptor subtype 4 (hMC4-R) (human) (P32245 whole entry): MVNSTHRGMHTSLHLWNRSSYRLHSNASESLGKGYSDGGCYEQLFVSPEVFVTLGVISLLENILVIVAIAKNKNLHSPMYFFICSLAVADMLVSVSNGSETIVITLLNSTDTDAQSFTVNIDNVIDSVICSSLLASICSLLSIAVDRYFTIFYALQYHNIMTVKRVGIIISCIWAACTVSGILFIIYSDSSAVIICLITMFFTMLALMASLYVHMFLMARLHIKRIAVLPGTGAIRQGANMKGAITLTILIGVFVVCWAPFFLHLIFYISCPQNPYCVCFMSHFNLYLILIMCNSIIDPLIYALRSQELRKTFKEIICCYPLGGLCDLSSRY

[3] = target: human melanocortin receptor subtype 3 (hMC3-R) (human) (UniProt P41968); assay: [125I]-NDP-α-MSH competition, membranes
Sequence of human melanocortin receptor subtype 3 (hMC3-R) (human) (P41968 whole entry): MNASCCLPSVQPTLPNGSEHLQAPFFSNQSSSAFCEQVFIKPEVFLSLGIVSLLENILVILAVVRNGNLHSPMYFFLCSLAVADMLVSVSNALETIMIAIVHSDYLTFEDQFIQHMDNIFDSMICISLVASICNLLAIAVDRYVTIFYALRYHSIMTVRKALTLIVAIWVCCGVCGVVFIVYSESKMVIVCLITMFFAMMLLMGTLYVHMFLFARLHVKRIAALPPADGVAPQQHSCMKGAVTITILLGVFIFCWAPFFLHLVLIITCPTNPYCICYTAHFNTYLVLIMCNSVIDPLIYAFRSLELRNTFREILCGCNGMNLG

hMC3-R (human) = hMC3-R (human) (UniProt P41968); assay: cell-based or functional assay
Sequence of hMC3-R (human) (P41968 whole entry): as above

hMC4-R (human) = hMC4-R (human) (UniProt P32245); assay: cell-based or functional assay
Sequence of hMC4-R (human) (P32245 whole entry): as the sequence (P32245 whole entry) above

[4] = target: human melanocortin receptor subtype 5 (hMC5-R) (human) (UniProt P33032); assay: [125I]-NDP-α-MSH competition, membranes
Sequence of human melanocortin receptor subtype 5 (hMC5-R) (human) (P33032 whole entry): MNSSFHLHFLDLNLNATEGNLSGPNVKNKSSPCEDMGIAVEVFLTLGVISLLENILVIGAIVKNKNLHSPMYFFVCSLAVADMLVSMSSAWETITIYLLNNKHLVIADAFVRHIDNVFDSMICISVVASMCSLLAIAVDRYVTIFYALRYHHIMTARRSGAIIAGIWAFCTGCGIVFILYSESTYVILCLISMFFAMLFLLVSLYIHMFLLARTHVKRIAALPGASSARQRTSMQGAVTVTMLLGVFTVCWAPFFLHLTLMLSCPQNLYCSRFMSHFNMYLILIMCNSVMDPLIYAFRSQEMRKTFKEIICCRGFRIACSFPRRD

hMC5-R (human), P33032 = assay: competition with [125I]-NDP-α-MSH, CHO-K1 membranes
Sequence of hMC5-R (human), P33032 (P33032 whole entry): as above

hMC1-R (human) = hMC1-R (human) (UniProt Q01726); assay: cell-based or functional assay
Sequence of hMC1-R (human) (Q01726 whole entry): as the sequence (Q01726 whole entry) above

hMC5-R (human) = hMC5-R (human) (UniProt P33032); assay: cell-based or functional assay
Sequence of hMC5-R (human) (P33032 whole entry): as the sequence (P33032 whole entry) above

[5] = target: human melanocortin receptor subtype 5 (hMC5-R) (human), P33032; assay: [125I]-NDP-α-MSH competition, membranes
Sequence of human melanocortin receptor subtype 5 (hMC5-R) (human), P33032 (P33032 whole entry): as above

[6] = target: human melanocortin receptor subtype 3 (hMC3-R) (human), P41968; assay: [125I]-NDP-α-MSH competition, membranes
Sequence of human melanocortin receptor subtype 3 (hMC3-R) (human), P41968 (P41968 whole entry): as the sequence (P41968 whole entry) above

[7] = target: human melanocortin receptor subtype 4 (hMC4-R) (human), P32245; assay: [125I]-NDP-α-MSH competition, membranes
Sequence of human melanocortin receptor subtype 4 (hMC4-R) (human), P32245 (P32245 whole entry): as the sequence (P32245 whole entry) above

[8] = target: human melanocortin receptor subtype 1 (hMC1-R) (human), Q01726; assay: [125I]-NDP-α-MSH competition, membranes
Sequence of human melanocortin receptor subtype 1 (hMC1-R) (human), Q01726 (Q01726 whole entry): as the sequence (Q01726 whole entry) above

B1: c[Hydantoin(C(O)-(Asp-D-Ala))-His-D-Phe-Arg-Trp-Dap]-NH2 (peptide)
peptide: D[dA]H[dF]RW[Dap]-NH2
modifications: lactam 1-7; also: hydantoin ring from C(O) with Asp1-D-Ala2
Ki [1]: 66.6 nM
Ki [2]: 19.9 nM
Ki [3]: 1820 nM
cAMP EC50 (hMC3-R (human)): 49.3 nM
cAMP EC50 (hMC4-R (human)): 2.12 nM

B4: Ac-Arg-c(Cys-D-Ala-His-D-Phe-Arg-Trp-Cys)-NH2 (peptide)
peptide: Ac-RC[dA]H[dF]RWC-NH2
modifications: disulfide 2-8
Ki (hMC5-R (human), P33032): 430 nM

B5: c[Hydantoin(C(O)-(Asp-D-Ala))-His-D-Phe-Arg-Trp-Orn]-NH2 (peptide)
peptide: D[dA]H[dF]RW[Orn]-NH2
modifications: lactam 1-7; also: hydantoin ring from C(O) with Asp1-D-Ala2
Ki [1]: 37.7 nM
Ki [2]: 7.81 nM
Ki [3]: 576 nM
Ki [4]: 6400 nM
cAMP EC50 (hMC1-R (human)): 56.6 nM
cAMP EC50 (hMC3-R (human)): 88.6 nM
cAMP EC50 (hMC4-R (human)): 4.5 nM
cAMP EC50 (hMC5-R (human)): 9300 nM

B8: Ac-Trp-Arg-c(Cys-D-Ala-His-D-Phe-Arg-Trp-Cys)-NH2 (peptide)
peptide: Ac-WRC[dA]H[dF]RWC-NH2
modifications: disulfide 3-9
SMILES: CC(=O)N[C@@H](Cc1c[nH]c2ccccc12)C(=O)N[C@@H](CCCNC(=N)N)C(=O)N[C@H]1CSSC[C@@H](C(N)=O)NC(=O)[C@H](Cc2c[nH]c3ccccc23)NC(=O)[C@H](CCCNC(=N)N)NC(=O)[C@@H](Cc2ccccc2)NC(=O)[C@H](Cc2c[nH]cn2)NC(=O)[C@@H](C)NC1=O
Ki [5]: 1470 nM
Ki [6]: 42 nM
Ki [7]: 2.25 nM
Ki [8]: 4.7 nM

The remaining lines, values ahead:

Ki [1]: 28 nM
Ki [2]: 12.7 nM
Ki [3]: 90.5 nM
Ki [4]: 877 nM
B2: c[Hydantoin(C(O)-(Glu-D-Ala))-His-D-Phe-Arg-Trp-Dab]-NH2 (peptide)
peptide: E[dA]H[dF]RW[Dab]-NH2
modifications: lactam 1-7; also: hydantoin ring from C(O) with Glu1-D-Ala2

Ki [1]: 60.4 nM
Ki [2]: 52.4 nM
Ki [3]: 2840 nM
cAMP EC50 (hMC3-R (human)): 39.2 nM
cAMP EC50 (hMC4-R (human)): 4.94 nM
B3: c[Hydantoin(C(O)-(Glu-D-Ala))-His-D-Phe-Arg-Trp-Orn]-NH2 (peptide)
peptide: E[dA]H[dF]RW[Orn]-NH2
modifications: lactam 1-7 (inferred); also: hydantoin ring from C(O) with Glu1-D-Ala2

Ki [1]: 3.51 nM
Ki [2]: 6.04 nM
Ki [3]: 29.2 nM
Ki [4]: 914 nM
B6: Hydantoin(C(O)-(Gly-D-Arg))-c(Cys-D-Ala-His-D-Phe-Arg-Trp-Cys)-NH2 (peptide)
peptide: G[dR]C[dA]H[dF]RWC-NH2
modifications: bridge N-2 via C(O) hydantoin; disulfide 3-9; not fully specified

Ki [1]: 16.4 nM
Ki [2]: 4.97 nM
Ki [3]: 863 nM
cAMP EC50 (hMC1-R (human)): 56.7 nM
cAMP EC50 (hMC3-R (human)): 18.2 nM
cAMP EC50 (hMC4-R (human)): 0.182 nM
cAMP EC50 (hMC5-R (human)): > 10000 nM
B7: c[Hydantoin(C(O)-(Glu-D-Ala))-His-D-Phe-Arg-Trp-Dap]-NH2 (peptide)
peptide: E[dA]H[dF]RW[Dap]-NH2
modifications: lactam 1-7 (inferred); also: hydantoin ring from C(O) with Glu1-D-Ala2

Ki [1]: 72.6 nM
Ki [2]: 45.2 nM
Ki [3]: 1920 nM
B9: c[Hydantoin(C(O)-(Glu-D-Ala))-His-D-Phe-Arg-Trp-Lys]-NH2 (peptide)
peptide: E[dA]H[dF]RWK-NH2
modifications: lactam 1-7 (inferred); also: hydantoin ring from C(O) with Glu1-D-Ala2
